Experimental data: patent US20150329644A1 (BRIGHAM AND WOMEN S HOSPITAL, published 2015)
Blank lines part the entries; values can stand above or below the binder they belong to. Ends that are not written are not given here.

Columns and labels:
[1] = target: T1, Recombinant 6x his tagged full-length LSD2 (human, UniProt Q8NB78 1-822); experiment: GST pulldown of purified His-LSD2, SDS-PAGE, Coomassie
T1 construct: range 1-822; Expressed in and purified from Sf9 insect cells; also called His-LSD2; full-length His-LSD2
T1 sequence: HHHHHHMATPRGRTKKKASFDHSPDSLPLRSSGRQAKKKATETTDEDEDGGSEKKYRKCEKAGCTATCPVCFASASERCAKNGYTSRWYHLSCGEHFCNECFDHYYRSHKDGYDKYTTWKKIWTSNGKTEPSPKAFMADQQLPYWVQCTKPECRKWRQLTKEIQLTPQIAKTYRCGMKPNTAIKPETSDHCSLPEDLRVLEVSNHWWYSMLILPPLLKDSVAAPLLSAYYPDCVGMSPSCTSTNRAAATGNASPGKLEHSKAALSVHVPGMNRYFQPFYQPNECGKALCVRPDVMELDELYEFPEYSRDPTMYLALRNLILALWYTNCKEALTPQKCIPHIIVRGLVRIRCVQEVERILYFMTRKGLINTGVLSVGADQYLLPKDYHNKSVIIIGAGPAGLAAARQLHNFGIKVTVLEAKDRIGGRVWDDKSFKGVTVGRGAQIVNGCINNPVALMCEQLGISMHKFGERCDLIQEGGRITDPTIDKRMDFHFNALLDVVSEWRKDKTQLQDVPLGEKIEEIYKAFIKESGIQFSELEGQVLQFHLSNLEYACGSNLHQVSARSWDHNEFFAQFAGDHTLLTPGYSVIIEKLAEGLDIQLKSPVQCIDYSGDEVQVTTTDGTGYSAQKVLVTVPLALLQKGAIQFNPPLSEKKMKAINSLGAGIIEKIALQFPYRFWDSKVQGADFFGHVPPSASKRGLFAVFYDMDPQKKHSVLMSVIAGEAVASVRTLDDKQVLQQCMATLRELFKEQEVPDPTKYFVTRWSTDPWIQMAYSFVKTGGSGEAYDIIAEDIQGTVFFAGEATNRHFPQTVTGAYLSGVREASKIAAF
Method: DH, dehydrogenase domain; black box, AT-hook motif. FIG. 2A discloses “PWWP” as SEQ ID NO: 63. […] Molecular masses corresponding to mono- and di-methylated H3K4 peptides (residues 1-21) are denoted as me1 and me2, respectively.
(§1) After washed 4 times with same buffer at 4° C., glutathione agarose beads were boiled in 1× SDS sample loading buffer. Elute was resolved on a 15% SDS-PAGE gel and stained by coomassie blue.

[2] = target: Endogenous LSD1 (HeLa cells) (human, UniProt O60341 1-852); experiment: tandem affinity purification, immunoblot with anti-LSD1
[3] = target: T2, Endogenous LSD2 (human cells) (human, UniProt Q8NB78 1-822, limits assumed); experiment: tandem affinity purification from HeLa, immunoblot with anti-LSD2
T2 construct: also called KDM1b; AOF1
T2 sequence (looked up): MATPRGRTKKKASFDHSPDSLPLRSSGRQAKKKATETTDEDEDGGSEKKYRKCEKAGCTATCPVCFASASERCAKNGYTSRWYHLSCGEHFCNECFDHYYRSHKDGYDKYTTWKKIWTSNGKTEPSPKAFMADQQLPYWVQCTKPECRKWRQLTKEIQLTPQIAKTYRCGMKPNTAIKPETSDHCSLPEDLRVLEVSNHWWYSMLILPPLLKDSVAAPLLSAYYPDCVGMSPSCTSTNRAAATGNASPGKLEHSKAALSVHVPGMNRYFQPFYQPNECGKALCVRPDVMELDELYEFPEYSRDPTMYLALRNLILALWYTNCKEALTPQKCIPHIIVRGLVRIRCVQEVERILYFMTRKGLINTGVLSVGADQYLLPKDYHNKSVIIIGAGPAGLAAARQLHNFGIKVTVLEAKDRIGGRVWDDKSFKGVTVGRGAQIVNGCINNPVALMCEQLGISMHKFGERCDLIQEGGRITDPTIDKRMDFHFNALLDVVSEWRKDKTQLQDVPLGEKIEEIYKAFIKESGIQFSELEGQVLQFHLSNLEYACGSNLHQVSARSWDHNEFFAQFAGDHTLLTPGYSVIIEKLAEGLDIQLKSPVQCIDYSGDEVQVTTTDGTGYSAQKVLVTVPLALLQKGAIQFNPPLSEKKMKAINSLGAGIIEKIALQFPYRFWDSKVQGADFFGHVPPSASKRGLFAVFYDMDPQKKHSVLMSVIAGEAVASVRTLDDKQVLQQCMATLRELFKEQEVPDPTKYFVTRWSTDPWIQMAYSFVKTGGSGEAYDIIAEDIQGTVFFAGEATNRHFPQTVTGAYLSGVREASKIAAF

[4] = target: FLAG-HA tagged LSD1 bait protein (stably expressed in HeLa, tandem affinity purified) (human, UniProt O60341 1-852); experiment: tandem affinity purification, immunoblot with anti-NPAC
[5] = target: T3, Human LSD2 (residues 51-822) (human, UniProt Q8NB78 51-822); experiment: ITC, 15 °C; 3 mM peptide injected into 0.2 mM LSD2 (residues 51-822)
T3 construct: range 51-822; Expressed in Sf9 cells with a His6 tag removed by 3C protease; used for ITC; also called KDM1b; AOF1
T3 sequence (looked up): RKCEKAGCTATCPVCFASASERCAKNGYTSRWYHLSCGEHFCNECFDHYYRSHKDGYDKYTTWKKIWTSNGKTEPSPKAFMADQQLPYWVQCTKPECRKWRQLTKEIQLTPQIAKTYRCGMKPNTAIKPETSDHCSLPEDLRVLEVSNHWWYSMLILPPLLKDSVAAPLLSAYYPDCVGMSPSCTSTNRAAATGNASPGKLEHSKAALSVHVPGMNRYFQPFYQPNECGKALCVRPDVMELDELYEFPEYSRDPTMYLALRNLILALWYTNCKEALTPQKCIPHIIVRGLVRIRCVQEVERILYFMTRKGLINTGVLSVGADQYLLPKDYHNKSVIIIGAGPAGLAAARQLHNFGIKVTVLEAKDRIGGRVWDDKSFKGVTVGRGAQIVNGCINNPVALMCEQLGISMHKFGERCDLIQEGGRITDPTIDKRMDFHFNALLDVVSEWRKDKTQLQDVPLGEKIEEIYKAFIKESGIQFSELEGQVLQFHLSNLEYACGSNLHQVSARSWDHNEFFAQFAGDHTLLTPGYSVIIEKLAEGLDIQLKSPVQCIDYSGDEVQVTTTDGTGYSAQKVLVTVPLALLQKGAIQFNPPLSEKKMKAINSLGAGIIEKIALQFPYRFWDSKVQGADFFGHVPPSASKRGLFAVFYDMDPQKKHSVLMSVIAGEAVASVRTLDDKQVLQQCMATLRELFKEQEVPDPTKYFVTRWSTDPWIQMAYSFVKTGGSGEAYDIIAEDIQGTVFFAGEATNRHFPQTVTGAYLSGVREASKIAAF
Method: Isothermal Titration Calorimetry (ITC) binding study. […] All proteins and peptides were prepared in 10 mM HEPES, pH 8.0, and 0.1 M NaCl. The data were fitted by software Origin 7.0.

[6] = target: T1, Recombinant 6x his tagged full-length …; experiment: GST pulldown of His-LSD2, SDS-PAGE, Coomassie
Method: FIG. 5B discloses SEQ ID NO: 51. […] FIG. 5D discloses SEQ ID NOS 63 and 76, respectively, in order of appearance. […] See also FIG. 6G.
as §1

binding result [2]: no binding
binding result [3]: binds
B4: FLAG-HA tagged NPAC (N-terminal FLAG-HA, stably expressed in HeLa, tandem affinity purified) (other)
chain: MAAVSLRLGDLVWGKLGRYPPWPGKIVNPPKDLKKPRGKKCFFVKFFGTEDHAWIKVEQLKPYHAHKEEMIKINKGKRFQQAVDAVEEFLRRAKGKDQTSSHNSSDDKNRRNSSEERSRPNSGDEKRKLSLSEGKVKKNMGEGKKRVSSGSSERGSKSPLKRAQEQSPRKRGRPPKDEKDLTIPESSTVKGMMAGPMAAFKWQPTASEPVKDADPHFHHFLLSQTEKPAVCYQAITKKLKICEEETGSTSIQAADSTAVNGSITPTDKKIGFLGLGLMGSGIVSNLLKMGHTVTVWNRTAEKCDLFIQEGARLGRTPAEVVSTCDITFACVSDPKAAKDLVLGPSGVLQGIRPGKCYVDMSTVDADTVTELAQVIVSRGGRFLEAPVSGNQQLSNDGMLVILAAGDRGLYEDCSSCFQAMGKTSFFLGEVGNAAKMMLIVNMVQGSFMATIAEGLTLAHVTGQSQQTLLDILNQGQLASIFLDQKCQNILQGNFKPDFYLKYIQKDLRLAIALGDAVNHPTPMAAAANEVYKRAKALDQSDNDMSAVYRAYIH
notes: Bait of the purified NPAC complex; also called FLAG:HA-NPAC; NPAC complex; not shown: N-terminal FLAG-HA tag from pOZ-N vector

binding result [4]: no binding
B5: Endogenous NPAC (human cells) (other)
chain: B4 chain
notes: Endogenous protein of HeLa cells, detected by immunoblot in purified complexes; also called GLYR1; NP60

binding result [6]: no binding
B7: GST-NP.d7 (NPAC residues 152-186, containing the AT hook motif) (other)
chain: SERGSKSPLKRAQEQSPRKRGRPPKDEKDLTIPES
modifications: also: GST tag fusion, tag and linker sequence not given here
notes: not shown: glutathione S-transferase (GST) tag from vector pGEX-4T-1

binding result [6]: no binding
B8: GST-NP.d9 (NP.d3, NPAC residues 152-252, with deletion of amino acids 214-222) (other, not shown: a dimerising Fc or GST; small tags and cut ends)
chain: SERGSKSPLKRAQEQSPRKRGRPPKDEKDLTIPESSTVKGMMAGPMAAFKWQPTASEPVKDASQTEKPAVCYQAITKKLKICEEETGSTSIQ
notes: The flanking ranges are derived from that

The remaining lines, values behind:

B1: GST-NP.d5 (NPAC residues 262-553, dehydrogenase domain) (other)
chain: SITPTDKKIGFLGLGLMGSGIVSNLLKMGHTVTVWNRTAEKCDLFIQEGARLGRTPAEVVSTCDITFACVSDPKAAKDLVLGPSGVLQGIRPGKCYVDMSTVDADTVTELAQVIVSRGGRFLEAPVSGNQQLSNDGMLVILAAGDRGLYEDCSSCFQAMGKTSFFLGEVGNAAKMMLIVNMVQGSFMATIAEGLTLAHVTGQSQQTLLDILNQGQLASIFLDQKCQNILQGNFKPDFYLKYIQKDLRLAIALGDAVNHPTPMAAAANEVYKRAKALDQSDNDMSAVYRAYIH
notes: as for B7
binding result [1]: no binding

B2: GST-NP.d6 (NPAC with deletion of the linker region, residues 152-252) (other, not shown: a dimerising Fc or GST; small tags and cut ends)
chain: MAAVSLRLGDLVWGKLGRYPPWPGKIVNPPKDLKKPRGKKCFFVKFFGTEDHAWIKVEQLKPYHAHKEEMIKINKGKRFQQAVDAVEEFLRRAKGKDQTSSHNSSDDKNRRNSSEERSRPNSGDEKRKLSLSEGKVKKNMGEGKKRVSSGSAADSTAVNGSITPTDKKIGFLGLGLMGSGIVSNLLKMGHTVTVWNRTAEKCDLFIQEGARLGRTPAEVVSTCDITFACVSDPKAAKDLVLGPSGVLQGIRPGKCYVDMSTVDADTVTELAQVIVSRGGRFLEAPVSGNQQLSNDGMLVILAAGDRGLYEDCSSCFQAMGKTSFFLGEVGNAAKMMLIVNMVQGSFMATIAEGLTLAHVTGQSQQTLLDILNQGQLASIFLDQKCQNILQGNFKPDFYLKYIQKDLRLAIALGDAVNHPTPMAAAANEVYKRAKALDQSDNDMSAVYRAYIH
notes: as for B8
binding result [1]: no binding

B3: GST-NP.d1 (NPAC residues 1-150, PWWP domain) (other)
chain: MAAVSLRLGDLVWGKLGRYPPWPGKIVNPPKDLKKPRGKKCFFVKFFGTEDHAWIKVEQLKPYHAHKEEMIKINKGKRFQQAVDAVEEFLRRAKGKDQTSSHNSSDDKNRRNSSEERSRPNSGDEKRKLSLSEGKVKKNMGEGKKRVSSG
notes: as for B7
binding result [1]: no binding

B6: NPAC.214-225.M8 (D214A/H216A/F217A) (peptide)
peptide: APAAHHFLLSQT
notes: Synthetic dodecapeptide; also called D214A/H216A/F217A triple mutant peptide
Δ H [5]: -8.29 kcal/mol
Δ S [5]: -1.3 cal/mol/deg

Binder: DPHFHHFLLSQT (also called wild-type NPAC peptide) [NPAC.214-225.WT (wild-type NPAC dodecapeptide, residues 214-225)]
Binding ratio [5]: 1.06
Kd [5]: 920 nM
Δ H [5]: -8.48 kcal/mol
Δ S [5]: -1.82 cal/mol/deg

B9: NPAC.214-225.M6 (F217A) (peptide)
peptide: DPHAHHFLLSQT
notes: Synthetic dodecapeptide; also called NP.M6
Binding ratio [5]: 1.1
Kd [5]: 930 nM
Δ H [5]: -8.18 kcal/mol
Δ S [5]: -0.783 cal/mol/deg
